The values that follow come from article PMC2808246, “Mycobacterial Nucleoside Diphosphate Kinase Blocks Phagosome Maturation in Murine Raw 264.7 Macrophages” (PLoS ONE, 2010).

The target of test [1] is T1, Rab5a GTPase, recombinant, GTP-loaded (UniProt P20339 1-215).
T1 sequence: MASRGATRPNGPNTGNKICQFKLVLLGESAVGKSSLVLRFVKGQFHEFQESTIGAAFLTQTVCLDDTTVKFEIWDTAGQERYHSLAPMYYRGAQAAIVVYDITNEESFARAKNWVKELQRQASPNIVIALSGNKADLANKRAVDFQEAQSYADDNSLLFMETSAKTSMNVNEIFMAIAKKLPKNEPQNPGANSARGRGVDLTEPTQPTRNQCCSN
As to the kind of experiment: cell-based or functional assay.

In test [2] the target is Rab7 GTPase, recombinant, GTP-loaded (UniProt P51149 1-207). Briefly: cell-based or functional assay.
Sequence of Rab7 GTPase, recombinant, GTP-loaded (P51149 whole entry): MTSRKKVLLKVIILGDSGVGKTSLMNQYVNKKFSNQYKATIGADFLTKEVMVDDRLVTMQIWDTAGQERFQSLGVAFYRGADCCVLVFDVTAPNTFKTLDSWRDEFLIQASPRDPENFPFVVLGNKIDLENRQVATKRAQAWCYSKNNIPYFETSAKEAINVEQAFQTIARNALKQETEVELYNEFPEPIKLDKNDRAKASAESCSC

B1: Mycobacterium tuberculosis nucleoside diphosphate kinase (Ndk), recombinant (enzyme)
chain: MTERTLVLIKPDGIERQLIGEIISRIERKGLTIAALQLRTVSAELASQHYAEHEGKPFFGSLLEFITSGPVVAAIVEGTRAIAAVRQLAGGTDPVQAAAPGTIRGDFALETQFNLVHGSDSAESAQREIALWFPGA
For the molecule B1, the “GAP activity: depletion of the gamma phosphate of [γ-32P]GTP bound to Rab5 spotted on nitrocellulose, after 2 h with 10 µg/ml Ndk, relative to untreated” value in test [1] came to 95%. Moreover, the “GAP activity: depletion of the gamma phosphate of [γ-32P]GTP bound to Rab7 spotted on nitrocellulose, after 2 h with 10 µg/ml Ndk, relative to untreated” value in test [2] was 90%.

B2: Mycobacterium smegmatis nucleoside diphosphate kinase (Ndk), recombinant (enzyme)
chain: MTERTLVLIKPDGVKRQLVGEILSRIERKGLTLAALELKNVSDDLARQHYAEHADKPFFGSLLEFITSGPLVAAIVEGPRAVAAFRQIAGGTDPVEKAVPGTIRGDFALITQDNLVHGSDSPESAAREIALWFPGEATA
Turning to B2, the “GAP activity: reduction of [γ-32P]GTP bound to Rab5 spotted on nitrocellulose, after 2 h with 10 µg/ml Ndk, relative to untreated” value in test [1] stood at 35%.
